According to the domain aggregation screens of Martell et al. (2025):

assay: soluble fraction after stress (log2 fold change); higher = more stays soluble; pooled small domains, quantitative proteomics; conditions: stress: pH 4
Outline: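 Values are log2 fold changes, and higher ones mean more of the domain stayed soluble. Each fold change reflects the soluble amount of a domain after acid stress and is taken as a measure of aggregation propensity. The stress was pH 4, applied to pooled custom libraries of small protein domains analysed by high-throughput quantitative proteomics.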

| Sequence | soluble fraction (log2) |
| --- | --- |
| HMSILSIGLERGMKKGVAWGIAKSILDILEETGPVSEKTREMIVTETDAERLSAWVKKAARSNSEEDFLSK | -1.21 |
| HMQEGPGLVPDFRGQTMREVLRGGQSLGVRVAVDGTGLAVAQTPEPGSPLNKVSQVTVSFRPP | 0.22 |
| HMTPILTAQQVVAALQAAGYRNVHDLEFEHGRWEADAVNAAGQRVELHINPYTGAIERERLD | -0.0319 |
| HMAVKTEHGRIWKALPEGQDGYREDVPMFTSKSMYDGSAGIGIFLIRLYEATSDERWLKEAEEAAAHII | 0.308 |
| HMRSWRDQRVDDLLAAVSELGMTMSRAAAGDLLDQRVEYVANQMRVTPATARKYLTEETLAGMAREIVFG | -0.83 |
| HMSPLTPEEAEVLRILGDHGDMTVDNIATEGKMSAAAVLRVLGVLSAYGLAVPSGPGRWGSRAA | 0.152 |
| HMDDLTTASIKQQLKALIDEENKNKPLSDQKLTDALKAQGIDISRRTVAKYREAMNIPGSSKRKRF | 0.0697 |
| HMNMMIIHVNGEKYSFQEPITISELILKLELDSRKIAIEYNLEILPRSLFEITSIKNGDKIEIVHFI | -0.892 |
| HMLQVRRILQLLADGYSKRQISQQTAVSRNTIDSYEDRFHLTGKSYQELLSMEDGELSGIVYP | 0.321 |
| HMDTGKLQSLVGSRGVAHTVLRPSGKVMIGDDVYPAVAETGFIPRGTAIVVRREEQGQLYVVEARK | 0.275 |
| HMSPLPDRESLGAIEKLISLLGSSEWTVREKATRELGAFGYLARPVLQRELATSGDPEVSRRLERILSNL | -0.00724 |
| HMHKLTSRQEEILQFIKDYLSEIGYPPTRSEIAQKMGFRSTNAAEEHLRALARKGAIEILPGPSRGLRLP | -0.393 |
| HMKALRNQDVVVGKPLAMAVYDQHGVLLLGRGHVVISESQRQQLLERGFSIDAEQLGRLRAAIEATQRV | 0.0921 |
| HMTGETWAERSRALAAAGLIVMGQEAKNKIEDLPSLSPLIEAAAASETRLLTGQIIDELLAFV | -1.04 |
| HMGRPWRIGDVVNVSRPTGDGGGFTKGLITRIYPTTVQVTWNPDLQHARPWTTMEKKQYLIFVYHDDE | ≥ 0.43 |
| HMTIEEMAIENINFSTQLLYKAMKYNGVNTVGDLLEKARSKKDLLTMAYIGNKEAEEIIEKLSELGITI | -1.84 |
| HMNVESLVGKQVIVSETIDNLKATGQVKVNGLEWTARAADETDIIPQGTEVTINEVSGVKLIVSR | 0.0287 |
| HMNMYTVTGRLVDQDGVPQANALVTIDSSSQQTRTSPQGFYLIKVFGTEPSTIKFLVDGYDPQIVNFTP | -0.278 |
| HMLEDDTVNTAEGIKIGDSFAAVTKAYGTDYVAAGNTYAYSKDKMTLTFVMNNDKVSTISYSLLTS | -0.412 |
| HMLAEEDRRRAERPGLDGNAVMVHLGIGPGRHVGEALAFLLEVRRSEGDLAVAELKSRIDAWWADR | -1.49 |
| HMLLAPLRLGAAPDIKAQAPLATILARHNGEMEAKDLWQRFGGEIDAFYLQLKTEVAHGWIVEPEPA | 0.0787 |
| HMTQPAEINRLVEQMGSSDYKSRQEAYERLHQMGPGILDLIYPYRNHADPEIQTRVRELILSYRW | -0.547 |
| HMGQISDEETLKTVASRIIDANPDEARKYRSGKTGLLGFFVGQVMKATQGEANPKLASRIVKELLE | ≥ 0.43 |
| HMNGAITLRVRPSDEGKRLDVFVVSQLTGYTRSFVAGLIGDRHFLVNGQPKKPGYRIKSSDTISGVIPAPA | 0.157 |
| HMDVYKRQKLRNFIESLFEDAPKNKQTIELKEEMLQNLIDKYNDLVDSGKSSEAAYNIATAS | -0.0341 |
| HMGELVIPPLRERTVVDAVAEAERLGFVVQVEPVASSLPEGRVLGQSPEPGTRARKSQVVVLQVSRG | 0.00536 |
| HMFDEDKLIISIGSKVRIIREPYFGTIGKVVELPPELVKMDTEAMLRVAIIKLDDGEKVTIPRANLEVILS | -0.87 |
| HMQENVIIYPNPTKSVIYLSEKVEFILYNILGEIIFIGDNNKIDLNSFDNGVYIFESGNVRTQIIK | 0.204 |

| Sequence | soluble fraction (log2) |
| --- | --- |
| HMYHADLIGLRVETAAGEKLGTVKAVHNFGAGDVIEITGAEDKDGLMVPFTAEVVPEVDIENGRIVVS | -0.868 |
| HMAEATATVTASEMVVRSGPSSSYSVLGSLEKGTVVTVLAASDGIAKISYKGNTGYARIVDMELNSA | 0.37 |
| HMRMLLEERLDEIVKIVNERGSISNQELVKMFGASESTIRRDITTLANDNRVIRVHGGAMSVVS | -0.387 |
| HMGLDERNLKLFAASLLEQAGKKITESTMTYLLDKTGSDMENIQNEVEKIIGYTMNHTVVTTEDIDAV | -0.745 |
| HMNPLSELSFEERRELFLEAAVRLFEEKGYKNTSVEDIAGELGFTKKVFYYYWKNKREIVQEIHDRGMA | -0.986 |
| HMSFSTHHEYYIYNLAVDMRKGYDGLSGLVVNELGRQPWDGSVYVFFNTMRDKVKLLVWDTDGYVIYSKR | -0.505 |
| HMLSVNREQVEQSLKQEWGFDYDKNLRAAQRAIDVYGDDDLKLLLNGPTGNDPAIVKLFARLGGEVTEE | -0.813 |
| HMTVTKYGKKILEIVSSSRSHMTAEEIFDALRQTYPTVVLATVYNNLNRLWQDDLIRKVSVEGMPDRYD | -0.0435 |
| HMIPSEQYNTALTEIGLSTRAHNSLRRAGIMTLGQLIEKTRDGLPPLPGFGDKSQVEVQDLLTGLGYPI | -1.03 |
| HMPYSAAVTFLDDAKQPMVNYNYRLIAENGIEVSGITDEFGKTQPIQTDQREKVDLYIADLPN | -0.37 |
| HMEALQKVSINYYDEGAGKQIAEVPLEVGAGDTEIALAVINKYMPAEYNLVSTDYQIRGGYVYVSVTPA | -0.215 |
| HMETYTVSSKDGYANVRNEATVNSDLIAELKNGTLVTKFKEKGEWYYIEFEREDGTPFDYGYIHKSQLK | -0.224 |
| HMLASDYEEELSVLIKMSHKIAAGDDSLMDDFNDRVTMFESSYPINKATKDLTPVLERVNKFQT | -0.295 |
| HMQKKEVTVPEVRSKSLKEAAQILSEQNLKYETEPVNVENPDMVVIDQFPKPGGKISEQSVIILYLR | 0.146 |
| HMDMAENEEYKVIMGQAQQLAEQFFPADDNTRRIMLGQLKLENYSLYLLTKQILDEATKGQAAAAN | -0.651 |
| HMRLARPLTPTEERVLRLLASDMSNAKIGEVLGIRLPTVKSHVSHIMQKLGVTSRAKARTAAQQLGI | ≥ 0.43 |
| HMKSDELTKRRRLQIIEAAERSFRKRGFHATTLREIAAEFGMSVGHIYNYFSGKDAILEALIHQKIDD | -0.429 |
| HMSYKYYSTERPLMPGSFPKPQGNTVLNIENFNDRSYVGKIGREAWGFIEYEKPISPVLLDDYELVAA | ≥ 0.43 |
| HMQVQHVWNRLKRPNGDVLYEINRDHPLVSASLDAAADRGAIETLLRQIEQSLPVNQLYVDMNADEHFE | -0.812 |
| HMYLNYQTIGKRIRLLRKQQHLTQMTLAEMVDKSPTYISLVENGQKGPSLETLIDVANALKVTMDVLLAEY | -1.58 |
| HMRITEGEIVEIQEGDNRALVGVGEKLEGIISLDEIRGADGKLLFNVGDKITVMVMGHYNERPK | -0.429 |
| HMASINRIENKNGKVVYRIIVSLGYDKQGKKLKKTITYNVNQTATKKQQENEALKYALDIEDKIKNGHD | -0.138 |
| HMEDPFATLGVHREASLDEIKRAYRRLAMFWHPDRNPEAVAGTEFKRVHAAYELLLDPQRLAEWQQAQAT | -0.424 |
| HMLSAQEIPVEDIATRDFVLAEDVVSAKKVLLLPKGVDLSWFGSAKKRLVQRLKSEGVTHIRVFA | 0.008 |
| HMGIDRPLFTLAQFARQIGEQVKISLSLPQDGRRRLQGKVLSVGESGIVLDVDGREFTVAIGNVDKARL | -0.197 |
| HMTPQEQWNNAYLLAKDYYDANGNLDIDEKYKTKDGFELGSWLTTQRNVYKRGKLSPEKTKKLEEIGISF | -0.107 |
| HMYAVQKGDTLKKIADQFGISVDTIKWANDMKGDALSIDQELKIP | 0.0154 |
